Assay results: patent US20230265179A1
Where a chain is given by its changes, count along the chain named.

B1: CD40L-385 (antibody, V domains shown)
VH: EVQLLESGGGLVQPGGSLRLSCAASGFTFSNYAMSWVRQAPGKGLEWVSAITGSGSTTYYADSVKGRFTISRDNSKNTLYLQMNSLRAEDTAVYYCARAHDYDSMLMDYWGQGTLVTVSS
VL: DIQMTQSPSSLSASVGDRVTITCRASQSIKSYLNWYQQKPGKAPKLLIYSASSLLSGVPSRFSGSGSGTDFTLTISSLQPEDFATYYCQQSYTLPRTFGGGTKVEIK
B2: CD40L-392 (antibody, V domains shown)
VH: EVQLLESGGGLVQPGGSLRLSCAASGFTFSSFDMTWVRQAPGKGLEWVSGISGSGGTTFYADSVKGRFTISRDNSKNTLYLQMNSLRAEDTAVYYCVRDVSDIYGYLDDAFDIWGQGTLVTVSS
VL: B1 VL with S28D, K30R, S31N, S50A, A51T, L55Q, S56T, T93G, L94A, R96L
B3: CD40L-417 (antibody, V domains shown)
VH: EVQLLESGGGLVQPGGSLRLSCAASGFTFSKYAMNWVRQAPGKGLEWVSAISGSGESTYYADSVKGRFTISRDNSKNTLYLQMNSLRAEDTAVYYCARHGGYYYYYMDVWGQGTLVTVSS
VL: B1 VL with A25G, K30S, Y32F, S50A, S53K, L55H, Q90H, T93S, L94T, R96L
B4: CD40L-401 (antibody, V domains shown)
VH: EVQLLESGGGLVQPGGSLRLSCAASGFTFGNYAMTWVRQAPGKGLEWVSAISGLGGSTYYADSVKGRFTISRDNSKNTLYLQMNSLRAEDTAVYYCTSSDPTYYYDSNGKSSLGMDVWGQGTLVTVSS
VL: B1 VL with A25G, K30S, Y32F, S50A, S53K, L55H, Q90H, T93S, L94T, R96L
B5: CD40L-421 (antibody, V domains shown)
VH: EVQLLESGGGLVQPGGSLRLSCAASGFTFSKYAMNWVRQAPGKGLEWVSAISGSGESTYYADSVKGRFTISRDNSKNTLYLQMNSLRAEDTAVYYCATDYGDYDRLNFDLWGQGTLVTVSS
VL: B1 VL with A25G, K30S, Y32F, S50A, S53K, L55H, Q90H, T93S, L94T, R96L
B6: CD40L-410 (antibody, V domains shown)
VH: EVQLLESGGGLVQPGGSLRLSCAASGFTFRTYAMGWVRQAPGKGLEWVSAISGSGGIAYYADSVKGRFTISRDNSKNTLYLQMNSLRAEDTAVYYCARHYYYDSSDAFDIWGQGTLVTISS
VL: B1 VL with S9F, S28N, K30L, S31T, S50G, S53T, L55R, T93R, R96L
B7: CD40L-182 (antibody, V domains shown)
VH: EVQLLESGGGLVQPGGSLRLSCAASGGYNFRDYMHWVRQAPGKGLEWVSYISSSGSSTYYADSVKGRFTISRDNSKNTLYLQMNSLRAEDTAVYYCAKNLGQGFDYWGQGTLVTVSS
VL: DIQMTQSPSSLSASVGDRVTITCSGDNLGDKYVHWYQQKPGKAPKLLIYGKKNRPSGVPSRFSGSGSGTDFTLTISSLQPEDFATYYCQAWDRTVVFGQGTKVEIK
B8: CD40L-154 (VHH)
VHH: EVQLVESGGGLVQPGGSLRLSCAASGRTSRSYEMGWFRQAPGKEREFVAAIDWDGSRTQYADSVKGRFTISADNSKNTAYLQMNSLKPEDTAVYYCAVPRETGWDGDWGQGTLVTVSS
B9: CD40L-141 (VHH)
VHH: EVQLVESGGGLVQPGGSLRLSCAASGGTLDDYAMGWFRQAPGKEREFLASVSWGFGSTYYADSVKGRFTISADNSKNTAYLQMNSLKPEDTAVYYCAKDGGSYGMDVWGQGTLVTVSS

target: CD40L (UniProt P29965); test: flow cytometry, 100 nM IgG, CD40L over-expressing Expi293 cells over parent Expi293 cells
Sequence (P29965 whole entry): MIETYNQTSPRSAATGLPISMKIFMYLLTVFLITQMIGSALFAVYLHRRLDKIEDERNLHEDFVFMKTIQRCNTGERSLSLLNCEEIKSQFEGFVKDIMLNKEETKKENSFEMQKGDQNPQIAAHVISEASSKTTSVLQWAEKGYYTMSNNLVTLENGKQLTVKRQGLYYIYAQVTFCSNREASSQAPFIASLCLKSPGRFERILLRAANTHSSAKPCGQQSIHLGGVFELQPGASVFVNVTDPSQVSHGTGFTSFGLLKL

Binder | 100 nM FACS (MFI Ratio) [MFI ratio]
B1 | 1.9
B2 | 2
B3 | 1.7
B4 | 1.8
B5 | 1.9
B6 | 1.8

target: CD40L over-expressed on Expi293 cells (UniProt P29965); test: flow cytometry, 100 nM antibody, CD40L-Expi293 vs parent Expi293 cells
Sequence (P29965 whole entry): as above

Binder | 100 nM FACS (MFI Ratio)
B7 | 1.8
B8 | 1.9
B9 | 2
